Consider six molecules from US20210388110A1 (published 2021).

For the assay, the target named is T1, soluble human CD3ε chain (human, UniProt P07766 23-126, limits assumed).
T1 construct: the text says soluble human CD3ε chain; also called human CD3 epsilon chain
In words: SPR (Biacore). In general terms: In SPR one partner is held on a chip, and binding of the other changes the refractive index at the surface.

The term Kd denotes the equilibrium constant for the complex coming apart. A higher Kd goes with lower affinity.

T1 sequence (P07766 23-126 limits assumed): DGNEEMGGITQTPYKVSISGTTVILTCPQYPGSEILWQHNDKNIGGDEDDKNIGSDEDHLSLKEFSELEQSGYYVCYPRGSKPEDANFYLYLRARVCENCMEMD

B1: TR01H081-E22Hh/none-Hi-Kn010G3/L0011-k0 (antibody, human IgG1, kappa, L234A L235A, N297A)
heavy: QVQLVESGGGLVQPGRSLRLSCAASGFTFSNAWMHWVRQAPGKGLEWVAQIKDKSQNYATYYAESVKGRFTISRADSKNSIYLQMNSLKTEDTAVYYCRYVHYAAGYGVDIWGQGTTVTVSSASTKGPSVFPLAPSSKSTSGGTAALGCLVKDYFPEPVTVSWNSGALTSGVHTFPAVLQSSGLYSLSSVVTVPSSSLGTQTYICNVNHKPSNTKVDKKVEPKSCDKTHTCPPCPAPEAAGGPSVFLFPPKPKDTLMISRTPEVTCVVVDVSHEDPEVKFNWYVDGVEVHNAKTKPREEQYASTYRVVSVLTVLHQDWLNGKEYKCKVSNKALPAPIEKTISKAKGQPREPQVYTLPPSRCELTKNQVSLSCAVKGFYPSDIAVEWESNGQPENNYKTTPPVLDSDGSFFLVSKLTVDKSRWQQGNVFSCSVMHEALHNHYTQKSLSLSPDYKDDDDK
chain: EPKSSDKTHTCPPCPAPELLGGPSVFLFPPKPKDTLMISRTPEVTCVVVDVSHEDPEVKFNWYVDGVEVHNAKTKPREEQYNSTYRVVSVLTVLHQDWLNGKEYKCKVSNKALPAPIEKTISKAKGQPREPQVCTLPPSRDELTKNQVSLWCLVKGFYPSDIAVEWESNGQPENNYKTTPPVLDSDGSFFLYSKLTVDKSRWQQGNVFSCSVMHEALHNRYTQKSLSLSP
light: DIVMTQSPLSLPVTPGEPASISCRSSQPLVHSNRNTYLHWYQQKPGQAPRLLIYKVSNRFSGVPDRFSGSGSGTDFTLKISRVEAEDVGVYYCGQGTQVPYTFGQGTKLEIKRTVAAPSVFIFPPSDEQLKSGTASVVCLLNNFYPREAKVQWKVDNALQSGNSQESVTEQDSKDSTYSLSSTLTLSKADYEKHKVYACEVTHQGLSSPVTKSFNRGEC
notes: single-arm
Molecule B1 registered a Kd of 13.5 nM.

B2: TR01H082-E22Hh/none-Hi-Kn010G3/L0011-k0 (antibody, human IgG1, kappa, L234A L235A, N297A)
heavy: QVQLVESGGGLVQPGRSLRLSCAASGFTFSNAWMHWVRQAPGKGLEWVAQIKDKSQNYATYYAESVKGRFTISRDDSKNSLYLQMNSLKTEDTAVYYCRYVHYAAGYGVDAWGQGTTVTVSSASTKGPSVFPLAPSSKSTSGGTAALGCLVKDYFPEPVTVSWNSGALTSGVHTFPAVLQSSGLYSLSSVVTVPSSSLGTQTYICNVNHKPSNTKVDKKVEPKSCDKTHTCPPCPAPEAAGGPSVFLFPPKPKDTLMISRTPEVTCVVVDVSHEDPEVKFNWYVDGVEVHNAKTKPREEQYASTYRVVSVLTVLHQDWLNGKEYKCKVSNKALPAPIEKTISKAKGQPREPQVYTLPPSRCELTKNQVSLSCAVKGFYPSDIAVEWESNGQPENNYKTTPPVLDSDGSFFLVSKLTVDKSRWQQGNVFSCSVMHEALHNHYTQKSLSLSPDYKDDDDK
chain: EPKSSDKTHTCPPCPAPELLGGPSVFLFPPKPKDTLMISRTPEVTCVVVDVSHEDPEVKFNWYVDGVEVHNAKTKPREEQYNSTYRVVSVLTVLHQDWLNGKEYKCKVSNKALPAPIEKTISKAKGQPREPQVCTLPPSRDELTKNQVSLWCLVKGFYPSDIAVEWESNGQPENNYKTTPPVLDSDGSFFLYSKLTVDKSRWQQGNVFSCSVMHEALHNRYTQKSLSLSP
light: DIVMTQSPLSLPVTPGEPASISCRSSQPLVHSNRNTYLHWYQQKPGQAPRLLIYKVSNRFSGVPDRFSGSGSGTDFTLKISRVEAEDVGVYYCGQGTQVPYTFGQGTKLEIKRTVAAPSVFIFPPSDEQLKSGTASVVCLLNNFYPREAKVQWKVDNALQSGNSQESVTEQDSKDSTYSLSSTLTLSKADYEKHKVYACEVTHQGLSSPVTKSFNRGEC
notes: single-arm
In turn, B2 gave a Kd of 59.5 nM.

B3: TR01H081-E22Hh/none-Hi-Kn010G3/L0201-k0 (antibody, human IgG1, kappa, L234A L235A, N297A)
heavy: QVQLVESGGGLVQPGRSLRLSCAASGFTFSNAWMHWVRQAPGKGLEWVAQIKDKSQNYATYYAESVKGRFTISRADSKNSIYLQMNSLKTEDTAVYYCRYVHYAAGYGVDIWGQGTTVTVSSASTKGPSVFPLAPSSKSTSGGTAALGCLVKDYFPEPVTVSWNSGALTSGVHTFPAVLQSSGLYSLSSVVTVPSSSLGTQTYICNVNHKPSNTKVDKKVEPKSCDKTHTCPPCPAPEAAGGPSVFLFPPKPKDTLMISRTPEVTCVVVDVSHEDPEVKFNWYVDGVEVHNAKTKPREEQYASTYRVVSVLTVLHQDWLNGKEYKCKVSNKALPAPIEKTISKAKGQPREPQVYTLPPSRCELTKNQVSLSCAVKGFYPSDIAVEWESNGQPENNYKTTPPVLDSDGSFFLVSKLTVDKSRWQQGNVFSCSVMHEALHNHYTQKSLSLSPDYKDDDDK
chain: EPKSSDKTHTCPPCPAPELLGGPSVFLFPPKPKDTLMISRTPEVTCVVVDVSHEDPEVKFNWYVDGVEVHNAKTKPREEQYNSTYRVVSVLTVLHQDWLNGKEYKCKVSNKALPAPIEKTISKAKGQPREPQVCTLPPSRDELTKNQVSLWCLVKGFYPSDIAVEWESNGQPENNYKTTPPVLDSDGSFFLYSKLTVDKSRWQQGNVFSCSVMHEALHNRYTQKSLSLSP
light: DIVMTQSPLSLPVTPGEPASISCRSSQPPVHSNRNTYLHWYQQKPGQAPRLLIYKVSNRFSGVPDRFSGSGSGTDFTLKISRVEAEDVGVYYCGQGTQVPYTFGQGTKLEIKRTVAAPSVFIFPPSDEQLKSGTASVVCLLNNFYPREAKVQWKVDNALQSGNSQESVTEQDSKDSTYSLSSTLTLSKADYEKHKVYACEVTHQGLSSPVTKSFNRGEC
notes: single-arm
With B3, the Kd stood at 9.46 nM.

B4: TR01H081-E22Hh/none-Hi-Kn010G3/L0262-k0 (antibody, human IgG1, kappa, L234A L235A, N297A)
heavy: QVQLVESGGGLVQPGRSLRLSCAASGFTFSNAWMHWVRQAPGKGLEWVAQIKDKSQNYATYYAESVKGRFTISRADSKNSIYLQMNSLKTEDTAVYYCRYVHYAAGYGVDIWGQGTTVTVSSASTKGPSVFPLAPSSKSTSGGTAALGCLVKDYFPEPVTVSWNSGALTSGVHTFPAVLQSSGLYSLSSVVTVPSSSLGTQTYICNVNHKPSNTKVDKKVEPKSCDKTHTCPPCPAPEAAGGPSVFLFPPKPKDTLMISRTPEVTCVVVDVSHEDPEVKFNWYVDGVEVHNAKTKPREEQYASTYRVVSVLTVLHQDWLNGKEYKCKVSNKALPAPIEKTISKAKGQPREPQVYTLPPSRCELTKNQVSLSCAVKGFYPSDIAVEWESNGQPENNYKTTPPVLDSDGSFFLVSKLTVDKSRWQQGNVFSCSVMHEALHNHYTQKSLSLSPDYKDDDDK
chain: EPKSSDKTHTCPPCPAPELLGGPSVFLFPPKPKDTLMISRTPEVTCVVVDVSHEDPEVKFNWYVDGVEVHNAKTKPREEQYNSTYRVVSVLTVLHQDWLNGKEYKCKVSNKALPAPIEKTISKAKGQPREPQVCTLPPSRDELTKNQVSLWCLVKGFYPSDIAVEWESNGQPENNYKTTPPVLDSDGSFFLYSKLTVDKSRWQQGNVFSCSVMHEALHNRYTQKSLSLSP
light: DIVMTQSPLSLPVTPGEPASISCRSSQPPVHSNRNTYLHWYQQKPGQAPRLLIYKVSNRFSGVPDRFSGSGSGTDFTLKISRVEAEDVGVYYCAQGTQVPYTFGQGTKLEIKRTVAAPSVFIFPPSDEQLKSGTASVVCLLNNFYPREAKVQWKVDNALQSGNSQESVTEQDSKDSTYSLSSTLTLSKADYEKHKVYACEVTHQGLSSPVTKSFNRGEC
notes: single-arm
Take B4: the Kd worked out at 5.76 nM.

B5: TR01H082-E22Hh/none-Hi-Kn010G3/L0000-k0 (antibody, human IgG1, kappa, L234A L235A, N297A)
heavy: QVQLVESGGGLVQPGRSLRLSCAASGFTFSNAWMHWVRQAPGKGLEWVAQIKDKSQNYATYYAESVKGRFTISRDDSKNSLYLQMNSLKTEDTAVYYCRYVHYAAGYGVDAWGQGTTVTVSSASTKGPSVFPLAPSSKSTSGGTAALGCLVKDYFPEPVTVSWNSGALTSGVHTFPAVLQSSGLYSLSSVVTVPSSSLGTQTYICNVNHKPSNTKVDKKVEPKSCDKTHTCPPCPAPEAAGGPSVFLFPPKPKDTLMISRTPEVTCVVVDVSHEDPEVKFNWYVDGVEVHNAKTKPREEQYASTYRVVSVLTVLHQDWLNGKEYKCKVSNKALPAPIEKTISKAKGQPREPQVYTLPPSRCELTKNQVSLSCAVKGFYPSDIAVEWESNGQPENNYKTTPPVLDSDGSFFLVSKLTVDKSRWQQGNVFSCSVMHEALHNHYTQKSLSLSPDYKDDDDK
chain: EPKSSDKTHTCPPCPAPELLGGPSVFLFPPKPKDTLMISRTPEVTCVVVDVSHEDPEVKFNWYVDGVEVHNAKTKPREEQYNSTYRVVSVLTVLHQDWLNGKEYKCKVSNKALPAPIEKTISKAKGQPREPQVCTLPPSRDELTKNQVSLWCLVKGFYPSDIAVEWESNGQPENNYKTTPPVLDSDGSFFLYSKLTVDKSRWQQGNVFSCSVMHEALHNRYTQKSLSLSP
light: DIVMTQSPLSLPVTPGEPASISCRSSQSLVHSNRNTYLHWYQQKPGQAPRLLIYKVSNRFSGVPDRFSGSGSGTDFTLKISRVEAEDVGVYYCGQGTQVPYTFGQGTKLEIKRTVAAPSVFIFPPSDEQLKSGTASVVCLLNNFYPREAKVQWKVDNALQSGNSQESVTEQDSKDSTYSLSSTLTLSKADYEKHKVYACEVTHQGLSSPVTKSFNRGEC
notes: single-arm
B5 showed a Kd of 73.7 nM.

B6: TR01H082-E22Hh/none-Hi-Kn010G3/L0201-k0 (antibody, human IgG1, kappa, L234A L235A, N297A)
heavy: QVQLVESGGGLVQPGRSLRLSCAASGFTFSNAWMHWVRQAPGKGLEWVAQIKDKSQNYATYYAESVKGRFTISRDDSKNSLYLQMNSLKTEDTAVYYCRYVHYAAGYGVDAWGQGTTVTVSSASTKGPSVFPLAPSSKSTSGGTAALGCLVKDYFPEPVTVSWNSGALTSGVHTFPAVLQSSGLYSLSSVVTVPSSSLGTQTYICNVNHKPSNTKVDKKVEPKSCDKTHTCPPCPAPEAAGGPSVFLFPPKPKDTLMISRTPEVTCVVVDVSHEDPEVKFNWYVDGVEVHNAKTKPREEQYASTYRVVSVLTVLHQDWLNGKEYKCKVSNKALPAPIEKTISKAKGQPREPQVYTLPPSRCELTKNQVSLSCAVKGFYPSDIAVEWESNGQPENNYKTTPPVLDSDGSFFLVSKLTVDKSRWQQGNVFSCSVMHEALHNHYTQKSLSLSPDYKDDDDK
chain: EPKSSDKTHTCPPCPAPELLGGPSVFLFPPKPKDTLMISRTPEVTCVVVDVSHEDPEVKFNWYVDGVEVHNAKTKPREEQYNSTYRVVSVLTVLHQDWLNGKEYKCKVSNKALPAPIEKTISKAKGQPREPQVCTLPPSRDELTKNQVSLWCLVKGFYPSDIAVEWESNGQPENNYKTTPPVLDSDGSFFLYSKLTVDKSRWQQGNVFSCSVMHEALHNRYTQKSLSLSP
light: DIVMTQSPLSLPVTPGEPASISCRSSQPPVHSNRNTYLHWYQQKPGQAPRLLIYKVSNRFSGVPDRFSGSGSGTDFTLKISRVEAEDVGVYYCGQGTQVPYTFGQGTKLEIKRTVAAPSVFIFPPSDEQLKSGTASVVCLLNNFYPREAKVQWKVDNALQSGNSQESVTEQDSKDSTYSLSSTLTLSKADYEKHKVYACEVTHQGLSSPVTKSFNRGEC
notes: single-arm
B6 registered a Kd of 44.9 nM.
